Test results published in patent publication US20230302148A1, “PHARMACEUTICAL COMPOSITION COMPRISING LONG-ACTING CONJUGATE OF TRIPLE GLUCAGON/GLP-1/GIP RECEPTOR AGONIST” (HANMI PHARM. CO., LTD., priority 2020, published 2023).
Bridges are numbered along the chain shown (N, C = ends). Where no end group is shown, it is not given here. [ ]: non-standard residue; d: D form. The star is where a group is joined. Acetyl(2-(4-imidazolyl)) = O=C(Cc1c[nH]cn1)*; Aib = CC(C)(N)C(=O)O

T1: human GIP receptor (human, UniProt P48546 22-466)
T1 sequence (looked up): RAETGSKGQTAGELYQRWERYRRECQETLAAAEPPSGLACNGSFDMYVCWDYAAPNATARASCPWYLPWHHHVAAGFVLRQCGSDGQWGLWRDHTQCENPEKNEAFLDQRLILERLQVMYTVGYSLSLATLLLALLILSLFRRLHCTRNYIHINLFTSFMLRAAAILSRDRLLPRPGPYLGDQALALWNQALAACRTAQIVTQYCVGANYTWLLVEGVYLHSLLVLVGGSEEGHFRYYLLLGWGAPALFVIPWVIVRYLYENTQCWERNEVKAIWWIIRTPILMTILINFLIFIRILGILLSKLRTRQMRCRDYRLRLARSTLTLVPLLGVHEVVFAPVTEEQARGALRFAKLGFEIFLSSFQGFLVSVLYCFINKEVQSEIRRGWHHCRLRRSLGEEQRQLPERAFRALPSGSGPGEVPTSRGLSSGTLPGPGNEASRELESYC


Experiments:
Assay in all cases: cell-based or functional assay
human GCG receptor = human GCG receptor (human, UniProt P47871 26-477)
human GIP receptor = biological target: T1, human GIP receptor
human GLP-1 receptor = human GLP-1 receptor (human, UniProt P43220 24-463)

Sequence of human GCG receptor (P47871 26-477): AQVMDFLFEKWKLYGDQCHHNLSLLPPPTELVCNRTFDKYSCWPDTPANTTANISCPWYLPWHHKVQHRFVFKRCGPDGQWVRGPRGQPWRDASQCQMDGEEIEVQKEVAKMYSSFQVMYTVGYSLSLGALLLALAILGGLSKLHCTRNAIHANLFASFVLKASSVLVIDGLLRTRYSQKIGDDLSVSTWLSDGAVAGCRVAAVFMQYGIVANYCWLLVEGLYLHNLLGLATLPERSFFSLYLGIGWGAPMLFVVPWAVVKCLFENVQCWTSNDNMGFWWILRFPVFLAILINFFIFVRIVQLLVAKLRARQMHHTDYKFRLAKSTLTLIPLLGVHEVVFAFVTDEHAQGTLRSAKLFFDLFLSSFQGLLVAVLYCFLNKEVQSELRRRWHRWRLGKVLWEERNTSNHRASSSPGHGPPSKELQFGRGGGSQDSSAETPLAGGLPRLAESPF

| Binder | In vitro activity relative to native peptide (%) vs. Glucagon (human GCG receptor) | In vitro activity relative to native peptide (%) vs. GIP (human GIP receptor) | In vitro activity relative to native peptide (%) vs. GLP-1 (human GLP-1 receptor) |
| --- | --- | --- | --- |
| H[Aib]QGTFTSDYSKYLDEKACKDFVQWLLDGGPSSGAPPPS (bridge 16-20) [triple agonist of SEQ ID NO: 32] | 1.7% | 8.8% | 151% |
| H[Aib]QGTFTSDCSKYLDERAAQDFVQWLLDGGPSSGAPPPS [triple agonist of SEQ ID NO: 25] | 0.1% | < 0.1% | 82.6% |
| [Acetyl(2-(4-imidazolyl))]GEGTFTSDLSKYLDSRRQQLFVQWLKAGGPSSGAPPPSHG [triple agonist of SEQ ID NO: 11] | < 0.1% | < 0.1% | 1.4% |
| Y[Aib]QGTFTSDYSKYLDECRAKEFVQWLLDHHPSSGQPPPS (bridge 16-20) [triple agonist of SEQ ID NO: 21] | 267% | 22.7% | 17.8% |
| [Acetyl(2-(4-imidazolyl))]GQGTFTSDLSKQMDEERAREFIEWLLAQKPSSGAPPPSHG [triple agonist of SEQ ID NO: 17] | < 0.1% | < 0.1% | 0.2% |
| H[Aib]QGTFTSDYSKYLDEKACKEFVQWLLAQ (bridge 16-20) [triple agonist of SEQ ID NO: 31] | 2.2% | 2.4% | 135% |
| [Acetyl(2-(4-imidazolyl))]GQGTFTSDLSIQYEEEAQQDFVEWLKDTGPSSGAPPPSHG [triple agonist of SEQ ID NO: 20] | < 0.1% | < 0.1% | < 0.1% |
| H[Aib]QGTFTSDCSKYLDSRAAQDFVQWLLDGGPSSGAPPPS [triple agonist of SEQ ID NO: 26] | 0.2% | < 0.1% | 64.5% |
| H[Aib]QGTFTSDYSKYLDERACQDFVQWLLDQGGPSSGAPPPS [triple agonist of SEQ ID NO: 27] | 0.8% | 0.9% | 83.1% |
| Y[Aib]QGTFTSDYSKYLDECRAKEFVQWLKNGGPSSGAPPPS (bridge 16-20) [triple agonist of SEQ ID NO: 24] | 9.3% | < 0.1% | 41.2% |
| [Acetyl(2-(4-imidazolyl))]GQGTFTSDLSKQMDSERAREFIEWLKNTGPSSGAPPPSHG [triple agonist of SEQ ID NO: 18] | < 0.1% | < 0.1% | < 0.1% |
| Y[Aib]QGTFTSDYSKALDEKAAKEFVQWLLDQHPSSGQPPPSC (bridge 16-20) [triple agonist of SEQ ID NO: 100] | 12.7% | 118% | 42.2% |
| H[Aib]QGTFTSDVSSYLLGQAAKQFIAWLVKGGGPSSGAPPPSC [triple agonist of SEQ ID NO: 3] | < 0.1% | < 0.1% | 1.8% |
| Y[Aib]QGTFTSDYSKALDEKAAKEFVNWLLDQHPSSGQPPPSC (bridge 16-20) [triple agonist of SEQ ID NO: 101] | 13.9% | 40.1% | 23.2% |
| Y[Aib]QGTFTSDYSKALDEKAAKDFVNWLLDHHPSSGQPPPSC (lactam 16-20) [triple agonist of SEQ ID NO: 99] | 14.9% | 57.7% | 20.9% |
| H[Aib]QGTFTSDVSSYLDGQAQKEFIAWLVKGC [triple agonist of SEQ ID NO: 2] | < 0.1% | < 0.1% | 5.9% |
| H[Aib]QGTFTSDYSKYLDEKAAKEFVQWLLNTC (bridge 16-20) [triple agonist of SEQ ID NO: 29] | 6% | < 0.1% | 38.5% |
| Y[Aib]QGTFTSDYSKALDEKAAKDFVNWLLDQHPSSGQPPPSC (bridge 16-20) [triple agonist of SEQ ID NO: 102] | 29.5% | 58% | 23.3% |
| H[Aib]QGTFTSDYSKYLDEKAQKEFVQWLLDTC (bridge 16-20) [triple agonist of SEQ ID NO: 30] | 0.7% | 0.8% | 142% |
| Y[Aib]QGTFTSDYSKCLDEKRAKEFVQWLLDHHPSSGQPPPS (bridge 16-20) [triple agonist of SEQ ID NO: 22] | 140% | 59.7% | 20.1% |
| [Acetyl(2-(4-imidazolyl))]GQGTFTSDLSKQMDSEAQQLFIEWLKNGGPSSGAPPPSHG [triple agonist of SEQ ID NO: 16] | < 0.1% | < 0.1% | 2.1% |
| H[Aib]QGTFTSDYSKYLDEKRAQEFVCWLLAQKGKKNDWKHNIT [triple agonist of SEQ ID NO: 28] | 1.6% | < 0.1% | 17.2% |
| [Acetyl(2-(4-imidazolyl))]GQGTFTSDYSIQLDEIAVRDFVEWLKNGGPSSGAPPPSHG [triple agonist of SEQ ID NO: 14] | < 0.1% | < 0.1% | 28% |
| [Acetyl(2-(4-imidazolyl))]GQGTFTSDLSIQYDSEHQRDFIEWLKDTGPSSGAPPPSHG [triple agonist of SEQ ID NO: 19] | < 0.1% | < 0.1% | < 0.1% |
| [Acetyl(2-(4-imidazolyl))]GEGTFISDLSKYMDEQAVQLFVEWLMAGGPSSGAPPPSHG [triple agonist of SEQ ID NO: 12] | < 0.1% | < 0.1% | 0.4% |
| Y[Aib]QGTFTSDYSKYLDECRAKEFVQWLLAQKGKKNDWKHNIT (bridge 16-20) [triple agonist of SEQ ID NO: 23] | 9.3% | < 0.1% | 4.01% |
